One data set relates to rabbit erythrocytes. The experiment in a line: Hemagglutination assay on trypsin-treated, glutaraldehyde fixed rabbit erythrocytes. The format is cell-based. Particulars: for stability of agglutination activity upon storage: even in the presence of reducing agents. As for the experimental part:
Trypsin-treated, glutaraldehyde fixed rabbit erythrocytes were prepared and tested in an agglutination assay according to the method of Nowak et al. (Nowak et al. (1976) supra). Agglutination assays were performed in 96-well V-shaped microtiter plates with serial 2-fold dilutions of samples in 25 μl of DES (0.15 M NaCl, 2 mM EDTA, 2 mM dithiothreitol), 50 μl of 0.5% (w/v) BSA in 0.15 M NaCl and 25 μl of a 4% suspension of rabbit erythrocytes. The plates were shaken vigorously for 30 s, and agglutination was read after the plates had stood at room temperature for 1 h. Agglutinated erythrocytes formed a “mat” on the bottom of the well. For assessment of the inhibitory effects of saccharides, lactose, galactose, and N-acetyl-glucosamine were serially diluted in 25 μl of 0.15 M NaCl prior to the addition of recombinant protein in DES, 25 μl of 1% (w/v) BSA in 0.15 M NaCl, and 4% erythrocytes in PBS. The minimum concentration of GST-galectin-14 that gave mat formation (0.28 μM) was used in the saccharide inhibition assay. For assessment of the effects of antibody on GST-galectin-14 hemagglutination, ascites and supernatants from monoclonal antibodies and polyclonal rabbit sera all raised to recombinant galectin-14 were serially diluted in 25 μl of 0.15 M NaCl prior to the addition of recombinant protein in DES, 25 μl of 1% (w/v) BSA in 0.15 M NaCl, and 4% erythrocytes in PBS. A different batch of GST-galectin-14, which produced mat formation at a minimum concentration of 0.059 μM, was used at 0.059 μM and 0.042 μM to measure both inhibition and potentiation of agglutination by antibodies.

Data set [1] addresses T1, laminin from Engelbreth-Holm-Swarm murine sarcoma (Mus musculus, UniProt P02468+P02469+P19137).
T1 construct: laminin from Engelbreth-Holm-Swarm murine sarcoma (Sigma); purchased Sigma; host or cells: Engelbreth-Holm-Swarm murine sarcoma (tissue-derived)
The experiment in a line: Solid-phase laminin binding assay. Particulars: serial dilutions; detected with anti-GST HRP antibody, absorbance 450 nm. The procedure:
FIG. 17 is an image of the saturation binding of GST-galectin-14 fusion protein to immobilised laminin. Laminin binding of GST-galectin-14 fusion protein was assayed using a solid-phase binding assay in a 96-well microtitre plate. Serial dilutions of GST-galectin-14 (▪) and GST (▴) were added to microtitre wells containing laminin. 0.3 M Lactose was added to GST-galectin-14 to inhibit binding (◯). The level of bound protein was monitored by the binding of rabbit anti-GST HRP antibody developed with TMB substrate and detected by a change in absorbance at 450 nm.
Laminin binding activity was measured according to the method of Mazurek et al. with some modification. Briefly, the wells of a 96-well microtitre plate were coated with laminin from Engelbreth-Holm-Swarm murine sarcoma (Sigma) at 1 μg/100 μl of carbonate coating buffer (15 mM Na2CO3, 35 mM NaHCO3, pH 9.6) per well overnight at 4° C. Non-specific binding sites were blocked with 200 μl of 0.5% Tween 20 in PBS for 1 h. Plates were washed 3 times in 0.05% Tween 20 PBS and incubated with 50 μl serial dilutions of GST-galectin-14 or GST alone, diluted in 0.5% Tween 20 PBS, for 1.5 h at 37° C. Control wells contained 0.3 M lactose. […] The reaction was terminated with 100 μl 2 M sulphuric acid and the colour change monitored using a dual wavelength mode plate reader (Bio-tek instruments) at 450 nm, ref 690 nm.

Data set [2] is described as follows: SDS-PAGE and Western blot analysis of recombinant galectin-14 after storage. The format is physicochemical. Particulars: storage at high concentrations; reducing conditions. The procedure:
FIG. 10 is an image of SDS-PAGE and Western blot analysis of recombinant galectin-14 and endogenous proteins. […] The arrow points to the position of monomeric galectin-14. All samples were run under reducing conditions. […] Membranes were incubated with mAb supernatant for 2 h at room temperature, followed by incubation with secondary antibody, horseradish peroxidase-conjugated rabbit anti-mouse Ig (Dako, Carpinteria, Calif.), for at least 1 h at room temperature. Signals were detected using 1.5 mM 3,3′-diaminobenzidine tetrahydrochloride (DAB; Sigma), or ECL (Amersham Pharmacia Biotech).

The source of these data is patent publication US20060057665A1, “Galectin-14 therapeutic molecule and uses thereof” (The University of Melbourne, priority 2001, published 2006).

B1: GST-galectin-14: Recombinant galectin-14 expressed in E. coli BL-21 as a GST fusion protein (pGEX-6P-2) (protein)
chain: MQSESGHEGDEELAFRDTQPPYINLPIPFTGRIEGGLQDGHKVTVMGRVLSTDENRFQVDFQMGISDTNNVAFHFNPRFEGSGYVVCNTMQLGNWGPEEKKMQMPFQKGSLFEICFKVDSSSFKVTVNGSIFLDYAHRLPFEQVNAISIGGCVHVSYISFQI
modifications: left off: a dimerising Fc or GST
For the molecule B1, the “maximum concentration which did not induce agglutination” value in the data set with rabbit erythrocytes (batch used in the antibody potentiation assay) was determined as 0.042 µM. The “minimum concentration that gave mat formation (agglutination)” value with rabbit erythrocytes (batch used in the saccharide inhibition assay) came to 0.28 µM. Also, the “minimum concentration that produced mat formation (agglutination)” value in the data set on rabbit erythrocytes (different batch, used in the antibody assays) is 0.059 µM. Moreover, the “stability of agglutination activity upon storage” value with rabbit erythrocytes is “did not deteriorate upon storage”. In data set [1], the “binding to immobilised laminin” value is listed as “bound to laminin in a dose dependent manner”.

B2: galectin-14: Ovine proto-type galectin, amino acid sequence <400>2; recombinant form cleaved from GST fusion, with 5 additional N-terminal amino acids (protein)
chain: MQSESGHEGDEELAFRDTQPPYINLPIPFTGRIEGGLQDGHKVTVMGRVLSTDENRFQVDFQMGISDTNNVAFHFNPRFEGSGYVVCNTMQLGNWGPEEKKMQMPFQKGSLFEICFKVDSSSFKVTVNGSIFLDYAHRLPFEQVNAISIGGCVHVSYISFQI
As to B2, the “minimum concentration exhibiting agglutination activity on rabbit erythrocytes” value in the data set with rabbit erythrocytes (fresh cleaved and purified recombinant protein) stood at 0.16 µM. In addition, in the data set on rabbit erythrocytes, the “stability of agglutination activity upon storage” value is on record as “rapidly lost upon storage”. The self-aggregation after storage result in data set [2] is reported as “often self-aggregates into oligomers”.
